Source: patent publication US20240240147A1
Each block holds one substance with its values, some of them ahead of it.

Target: human B cell antigen CD19 on human B-ALL cells (human) (UniProt P15391)
Assay: cell-based or functional assay

percent of CarP-RFP macrophages (from GMPs expanded in modified SCF/2i) that engulfed GFP-labeled human B-ALL cells within 1 hour of co-culture; control CAR without signaling domain: 0.87%
percent of macrophages (from mouse SCF/2i GMPs) that phagocytized GFP-labeled human B-ALL cells within 1 hour of co-culture; control CAR without signaling domain: 0.21%
Substance: CarP-RFP (control CarP: extracellular αCD19 scFv, CD8 transmembrane domain, RFP, no cytoplasmic signaling domain) (from UniProt P01732 138-206)

percent of macrophages (from mouse SCF/2i GMPs) that engulfed GFP-positive human B-ALL cells within 1 hour of co-culture: 5.23%
Substance: CarP^Fc19-RFP (αCD19 scFv, human CD8 hinge/transmembrane, mouse Fcer1g aa19-86, mouse CD19 aa491-535, P2A-RFP) (from UniProt P01732 138-206; P20491 19-86; P25918 491-535)

percent of macrophages (from GMPs expanded in modified SCF/2i) that engulfed GFP-labeled human B-ALL leukemia cells within 1 hour of co-culture, by flow cytometry: 28.6%
Substance: human CarPzFc19-RFP (αCD19 scFv, human CD8 hinge/transmembrane, human CD3ζ aa52-164, human Fcer1g aa45-86, human CD19 aa498-544) (from UniProt P01732 138-206; P20963 52-164; P30273 45-86; P15391 498-544)

percent of macrophages (from mouse SCF/2i GMPs) that engulfed human B-ALL leukemia cells within 1 hour of co-culture, by flow cytometry: 41.6%
Substance: αCD19 CarP^zFc19-RFP (αCD19 scFv, human CD8 hinge/transmembrane, mouse CD3ζ aa52-164, mouse Fcer1g aa45-86, mouse CD19, P2A-RFP) (from UniProt P01732 138-206; P24161 52-164; P20491 45-86; P25918 491-535)
